Assays:
Test in all cases: SPR, mAb captured, C2 mutant analyte;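 further: Anti-C2 mAbs captured on goat anti-human IgG Biacore CM5 chips, alanine or serine C2 surface mutants flowed over at 37 °C, double-referenced sensorgrams fitted to a 1:1 binding model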
human C2 A326S = molecular target: T1, human C2 A326S (human, UniProt P06681 21-752)
T1 sequence: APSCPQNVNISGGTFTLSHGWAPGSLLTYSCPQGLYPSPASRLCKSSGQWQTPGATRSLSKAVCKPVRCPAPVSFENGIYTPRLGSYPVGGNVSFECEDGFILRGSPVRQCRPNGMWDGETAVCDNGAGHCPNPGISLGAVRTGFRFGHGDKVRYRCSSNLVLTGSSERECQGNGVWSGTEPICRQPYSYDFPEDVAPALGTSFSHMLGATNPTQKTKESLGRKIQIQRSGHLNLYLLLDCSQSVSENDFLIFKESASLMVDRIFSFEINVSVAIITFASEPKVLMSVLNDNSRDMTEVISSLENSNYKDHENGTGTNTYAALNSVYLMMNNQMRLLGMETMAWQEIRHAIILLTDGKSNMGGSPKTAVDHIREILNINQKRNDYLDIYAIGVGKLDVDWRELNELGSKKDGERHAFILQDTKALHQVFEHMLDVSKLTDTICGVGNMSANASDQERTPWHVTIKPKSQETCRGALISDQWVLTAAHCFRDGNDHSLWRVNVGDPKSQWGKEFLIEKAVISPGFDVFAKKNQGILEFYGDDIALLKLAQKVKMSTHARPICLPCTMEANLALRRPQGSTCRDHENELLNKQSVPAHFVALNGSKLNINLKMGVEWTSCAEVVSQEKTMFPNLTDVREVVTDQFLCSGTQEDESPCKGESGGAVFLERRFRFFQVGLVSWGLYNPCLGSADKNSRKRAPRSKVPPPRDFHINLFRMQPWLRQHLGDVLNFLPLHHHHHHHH

human C2 R688A = molecular target: T2, human C2 R688A (human, UniProt P06681 21-752)
T2 sequence: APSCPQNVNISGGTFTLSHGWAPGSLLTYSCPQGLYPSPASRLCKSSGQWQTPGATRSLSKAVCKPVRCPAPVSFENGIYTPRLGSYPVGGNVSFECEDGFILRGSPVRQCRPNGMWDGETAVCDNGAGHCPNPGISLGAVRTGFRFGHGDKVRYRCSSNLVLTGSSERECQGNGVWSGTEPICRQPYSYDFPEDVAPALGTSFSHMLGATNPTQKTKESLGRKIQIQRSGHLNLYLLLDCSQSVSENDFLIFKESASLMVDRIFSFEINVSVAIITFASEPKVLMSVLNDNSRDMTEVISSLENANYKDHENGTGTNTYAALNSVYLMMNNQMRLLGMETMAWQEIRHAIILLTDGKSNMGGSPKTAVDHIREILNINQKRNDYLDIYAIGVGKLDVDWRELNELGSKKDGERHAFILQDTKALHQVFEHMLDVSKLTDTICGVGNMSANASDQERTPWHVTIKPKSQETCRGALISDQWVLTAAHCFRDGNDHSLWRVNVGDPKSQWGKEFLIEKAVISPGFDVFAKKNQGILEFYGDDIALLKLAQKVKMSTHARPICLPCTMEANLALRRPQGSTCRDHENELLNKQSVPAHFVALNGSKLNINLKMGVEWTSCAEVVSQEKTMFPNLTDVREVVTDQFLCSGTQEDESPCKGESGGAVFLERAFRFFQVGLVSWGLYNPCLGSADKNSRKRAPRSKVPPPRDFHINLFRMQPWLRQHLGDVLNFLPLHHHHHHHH

human C2 V465A = molecular target: T3, human C2 V465A (human, UniProt P06681 21-752)
T3 sequence: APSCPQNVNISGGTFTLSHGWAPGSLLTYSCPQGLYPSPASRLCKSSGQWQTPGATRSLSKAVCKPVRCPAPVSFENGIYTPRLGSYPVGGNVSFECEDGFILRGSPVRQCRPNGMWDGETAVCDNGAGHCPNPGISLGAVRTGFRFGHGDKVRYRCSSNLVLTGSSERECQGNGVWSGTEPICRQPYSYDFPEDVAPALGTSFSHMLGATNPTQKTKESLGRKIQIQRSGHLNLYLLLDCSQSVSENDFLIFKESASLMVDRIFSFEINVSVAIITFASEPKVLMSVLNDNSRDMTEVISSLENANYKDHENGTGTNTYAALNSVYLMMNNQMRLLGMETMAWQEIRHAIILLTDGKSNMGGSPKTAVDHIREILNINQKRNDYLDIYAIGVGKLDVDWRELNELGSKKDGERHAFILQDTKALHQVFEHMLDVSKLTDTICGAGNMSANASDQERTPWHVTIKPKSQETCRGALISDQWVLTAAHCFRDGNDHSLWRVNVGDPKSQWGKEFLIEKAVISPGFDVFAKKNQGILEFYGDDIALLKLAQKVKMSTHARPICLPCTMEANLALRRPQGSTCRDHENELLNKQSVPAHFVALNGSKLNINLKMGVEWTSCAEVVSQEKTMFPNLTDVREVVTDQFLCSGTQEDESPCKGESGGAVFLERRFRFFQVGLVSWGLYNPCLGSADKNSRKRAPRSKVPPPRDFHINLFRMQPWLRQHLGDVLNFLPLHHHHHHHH

human C2 L620A = molecular target: T4, human C2 L620A (human, UniProt P06681 21-752)
T4 sequence: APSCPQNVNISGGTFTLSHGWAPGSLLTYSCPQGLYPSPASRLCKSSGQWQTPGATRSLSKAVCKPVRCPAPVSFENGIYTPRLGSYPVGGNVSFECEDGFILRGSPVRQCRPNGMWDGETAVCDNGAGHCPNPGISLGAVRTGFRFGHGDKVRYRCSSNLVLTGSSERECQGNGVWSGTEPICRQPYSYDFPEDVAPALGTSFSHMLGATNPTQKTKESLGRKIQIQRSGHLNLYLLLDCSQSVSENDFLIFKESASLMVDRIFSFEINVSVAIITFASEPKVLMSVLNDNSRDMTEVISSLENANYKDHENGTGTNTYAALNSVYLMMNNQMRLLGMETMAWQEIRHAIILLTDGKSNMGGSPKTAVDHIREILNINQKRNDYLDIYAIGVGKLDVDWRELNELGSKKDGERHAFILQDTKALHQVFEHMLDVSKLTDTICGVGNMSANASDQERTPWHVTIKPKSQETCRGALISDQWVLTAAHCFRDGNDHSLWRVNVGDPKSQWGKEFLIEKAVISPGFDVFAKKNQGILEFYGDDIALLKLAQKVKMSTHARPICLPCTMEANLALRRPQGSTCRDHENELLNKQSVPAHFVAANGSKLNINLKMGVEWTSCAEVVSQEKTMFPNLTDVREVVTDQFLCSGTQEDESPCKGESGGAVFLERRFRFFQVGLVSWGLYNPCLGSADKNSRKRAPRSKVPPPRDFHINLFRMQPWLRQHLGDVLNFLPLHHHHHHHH

Kd (human C2 A326S): 45.5 nM
Kd (human C2 R688A): 96.2 nM
Kd (human C2 V465A): 72.7 nM
Kd (human C2 L620A): 30.8 nM
B1: RF16-214 (antibody, V domains shown)
VH: EVQLLESGGGLVQPGGSLRLSCAASGFTFSWYQMMWVRQAPGKGLEWVSRIYPSGGGTAYADSVKGRFTISRDNSKNTLYLQMNSLRAEDTAVYYCARDAGYGDNWGQGTLVTVSS
VL: QSALTQPPSVSVSPGQTASITCSGDKLGEKYASWYQQKAGQSPVMVIYQDRKRPSGIPERFSGSNSGNTATLTISGTQAMDEADYYCQAWDTRAVVFGGGTKLTVLG

From patent US20220332804A1 (CSL INNOVATION, published 2022)
